Assay results taken from US20160168209A1.
One block for each substance: values may come before it.

Assays:
[1] = target: Gamma globulin (Nichiyaku), used as a human IgG (human); assay: affinity chromatography, dynamic binding capacity at 5% breakthrough; ligand on HiTrap NHS agarose at 5.7 mg/mL-gel
[2] = target: Gamma globulin (Nichiyaku), used as a human IgG (human); assay: affinity chromatography, dynamic binding capacity at 5% breakthrough; ligand on HiTrap NHS agarose at 10.9 mg/mL-gel
[3] = target: Gamma globulin (Nichiyaku), used as a human IgG (human); assay: affinity chromatography, dynamic binding capacity at 5% breakthrough; ligand on HiTrap NHS agarose at 8.8 mg/mL-gel
[4] = target: human immunoglobulin G preparation separated from human plasma (Gammagard, Baxter) (human); assay: SPR (Biacore 3000), human IgG on CM5 chip, ligand flowed at 16-128 nM, 1:1 fit, 25 C
[5] = target: Gamma globulin (Nichiyaku), used as a human IgG (human); assay: affinity chromatography, dynamic binding capacity at 5% breakthrough; ligand on cross-linked cellulose beads at 11.6 mg/mL-gel
[6] = target: Gamma globulin (Nichiyaku), used as a human IgG (human); assay: affinity chromatography, dynamic binding capacity at 5% breakthrough; ligand on HiTrap NHS agarose at 9.4 mg/mL-gel
[7] = target: Gamma globulin (Nichiyaku), used as a human IgG (human); assay: affinity chromatography, dynamic binding capacity at 5% breakthrough; ligand on HiTrap NHS agarose at 4.8 mg/mL-gel
[8] = target: Gamma globulin (Nichiyaku), used as a human IgG (human); assay: affinity chromatography, dynamic binding capacity at 5% breakthrough; ligand on HiTrap NHS agarose at 5.1 mg/mL-gel
[9] = target: human immunoglobulin G preparation separated from human plasma (Gammagard, Baxter) (human); assay: SPR (Biacore 3000), human IgG on CM5 chip, as in Example 3
[10] = target: Gamma globulin (Nichiyaku), used as a human IgG (human); assay: affinity chromatography, dynamic binding capacity at 5% breakthrough; ligand on HiTrap NHS agarose at 9.0 mg/mL-gel
[11] = target: Gamma globulin (Nichiyaku), used as a human IgG (human); assay: affinity chromatography, dynamic binding capacity at 5% breakthrough; ligand on HiTrap NHS agarose at 13.5 mg/mL-gel
[12] = target: Gamma globulin (Nichiyaku), used as a human IgG (human); assay: affinity chromatography, dynamic binding capacity at 5% breakthrough; ligand on HiTrap NHS agarose at 6.9 mg/mL-gel
[13] = target: Gamma globulin (Nichiyaku), used as a human IgG (human); assay: affinity chromatography, dynamic binding capacity at 5% breakthrough; ligand on HiTrap NHS agarose at 14.1 mg/mL-gel
[14] = target: Gamma globulin (Nichiyaku), used as a human IgG (human); assay: affinity chromatography, dynamic binding capacity at 5% breakthrough; ligand on HiTrap NHS agarose at 6.8 mg/mL-gel
[15] = target: Gamma globulin (Nichiyaku), used as a human IgG (human); assay: affinity chromatography, dynamic binding capacity at 5% breakthrough; ligand on cross-linked cellulose beads at 11.0 mg/mL-gel
[16] = target: Gamma globulin (Nichiyaku), used as a human IgG (human); assay: affinity chromatography, dynamic binding capacity at 5% breakthrough; ligand on HiTrap NHS agarose at 6.4 mg/mL-gel
[17] = target: Gamma globulin (Nichiyaku), used as a human IgG (human); assay: affinity chromatography, dynamic binding capacity at 5% breakthrough; ligand on HiTrap NHS agarose at 9.5 mg/mL-gel
[18] = target: Gamma globulin (Nichiyaku), used as a human IgG (human); assay: affinity chromatography, dynamic binding capacity at 5% breakthrough; ligand on HiTrap NHS agarose at 12.5 mg/mL-gel

5% antibody dBC [11]: 62.1 mg/mL-gel
5% antibody dBC [12]: 41.8 mg/mL-gel
Ka [4]: 1.1e+09 M⁻¹
Substance: C-K04R/K07R/G29A/S33R/K35R/K42R/K49Q/K50R(C-terminal K58R).4d (designed binder)

5% antibody dBC [13]: 62.1 mg/mL-gel
5% antibody dBC [14]: 42.6 mg/mL-gel
Ka [4]: 1e+09 M⁻¹
Substance: C-K04R/K07R/G29A/S33R/K35R/K42R/K49Q/K50R.4d (designed binder)

Second part, the substance before the results:

Substance: C-G29A/S33E.5d (designed binder)
5% antibody dBC [1]: 38.3 mg/mL-gel
5% antibody dBC [2]: 54.4 mg/mL-gel
5% antibody dBC [3]: 50.3 mg/mL-gel
Ka [4]: 6.3e+09 M⁻¹
5% antibody dBC [5]: 36.8 mg/mL-gel

Substance: C-K04R/K07R/G29A/S33L/K35R/K42R/K49R/K50R.3d (designed binder)
5% antibody dBC [6]: 73.4 mg/mL-gel
Ka [4]: 2.1e+09 M⁻¹
5% antibody dBC [7]: 56.5 mg/mL-gel

Substance: C-K04R/K07R/G29A/S33L/K35R/K42R/K49R/K50R/(K58R except for C-terminal).3d (designed binder)
5% antibody dBC [8]: 49.1 mg/mL-gel
Ka [9]: 2.2e+09 M⁻¹
5% antibody dBC [10]: 66.2 mg/mL-gel

Substance: C-K04R/K07R/G29A/S33R/K35R/K42R/K49Q/K50R.5d (designed binder)
5% antibody dBC [15]: 46.1 mg/mL-gel
5% antibody dBC [16]: 45.8 mg/mL-gel
Ka [4]: 1.5e+09 M⁻¹
5% antibody dBC [17]: 55.3 mg/mL-gel
5% antibody dBC [18]: 61.3 mg/mL-gel
